From paper PMC10746158, “Archaeal GPN-loop GTPases involve a lock-switch-rock mechanism for GTP hydrolysis” (mBio, 2023)

Substrate: Nc1nc2c(ncn2[C@@H]2O[C@H](COP(=O)(O)OP(=O)(O)OP(=O)(O)O)[C@@H](O)[C@H]2O)c(=O)[nH]1
Assay: Malachite green phosphate release, Michaelis-Menten fit
Format: biochemical, Sulfolobus acidocaldarius
Settings: 65 °C, 0-500 µM GTP, 50 mM Tris pH 8.0, 150 mM NaCl, 10 mM MgCl2, 10 µM SaGPN

B1: SaGPN (Sulfolobus acidocaldarius DSM 639) (protein)
chain: MYFIFVLGTAGSGKTTLVKALQDYLLNNELDTAIINLDPAVEVLPYKPDIDAREYVDVYDVMNKYELGPNSSLVISVDLLLTKAKELKEDLNQLQANYVLVDTPGQIELFAYRDTGKILSSFISEGSKSVSVFLFDSYLSKDPKSFLSLFLLSSSIKFRIDMPQISVLSKVDLLSSSELERMRSWIEDGSIIDELGSIDEYSFELVKTIVENLESFPIPVSSTNFSGLDQLYAEVQKVLAGGEDFETEEPNPRL
notes: E. coli BL21(DE3) Rosetta; Y2-A240 built, 14 C-terminal residues disordered
Protein B1 has a Km of 40.48 µM.
